According to article PMC9596381 (2022):
Read-outs that look alike come from different tables or passages of the source.

B1: mouse Unc5C ectodomain (domain or fragment)
chain: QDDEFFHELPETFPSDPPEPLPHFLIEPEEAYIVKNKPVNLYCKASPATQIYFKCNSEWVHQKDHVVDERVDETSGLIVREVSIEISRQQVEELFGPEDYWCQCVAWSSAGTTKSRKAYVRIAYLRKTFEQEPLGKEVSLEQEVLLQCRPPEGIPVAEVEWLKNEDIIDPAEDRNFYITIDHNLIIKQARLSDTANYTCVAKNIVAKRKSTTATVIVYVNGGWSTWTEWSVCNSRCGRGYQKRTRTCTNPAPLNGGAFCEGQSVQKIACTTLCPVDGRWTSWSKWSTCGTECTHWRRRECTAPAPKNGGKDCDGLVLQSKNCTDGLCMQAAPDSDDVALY
modifications: biotin on the Avi-tag
B2: Rattus norvegicus Unc5D residues 32-307 (rUnc5D^IgIgTSP) (domain or fragment)
chain: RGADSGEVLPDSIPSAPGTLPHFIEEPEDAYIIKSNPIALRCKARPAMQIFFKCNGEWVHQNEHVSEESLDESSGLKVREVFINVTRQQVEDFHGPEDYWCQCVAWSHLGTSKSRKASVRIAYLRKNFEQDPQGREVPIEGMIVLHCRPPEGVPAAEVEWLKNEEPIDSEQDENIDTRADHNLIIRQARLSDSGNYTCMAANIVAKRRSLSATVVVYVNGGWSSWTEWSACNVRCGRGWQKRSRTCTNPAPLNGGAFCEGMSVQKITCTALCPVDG
modifications: C-mannosylated tryptophans W253 and W256 (TSP1)

Legend:
[1] = target: T1, human glypican-3 core domain, residues 32-483 (hGPC3^core) (human, UniProt P51654 32-483, N-linked glycans at N124 and N241); test: SPR
[2] = target: T1, human glypican-3 core domain, residues …; test: SPR; remark: listed apart in the source

T1 sequence (P51654 32-483): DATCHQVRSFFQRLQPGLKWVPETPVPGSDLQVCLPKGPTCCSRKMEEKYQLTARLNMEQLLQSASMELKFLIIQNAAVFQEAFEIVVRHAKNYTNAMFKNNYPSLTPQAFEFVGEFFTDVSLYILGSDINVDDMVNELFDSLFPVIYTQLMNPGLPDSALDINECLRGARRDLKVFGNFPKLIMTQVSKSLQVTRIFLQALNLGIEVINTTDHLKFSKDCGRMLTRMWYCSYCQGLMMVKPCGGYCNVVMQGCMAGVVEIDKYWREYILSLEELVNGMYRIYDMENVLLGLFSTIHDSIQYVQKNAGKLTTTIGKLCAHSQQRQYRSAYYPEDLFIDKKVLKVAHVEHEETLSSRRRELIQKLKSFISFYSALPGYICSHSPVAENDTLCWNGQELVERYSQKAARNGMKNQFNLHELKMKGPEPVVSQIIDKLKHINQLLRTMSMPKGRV

Binder	Kd [1]	Kd [2]
B1	3300 nM	–
B2	–	265 nM
